Assay results published in patent publication US20230257454A1 (STAIDSON BEIJING BIOPHARMACEUTICALS, published 2023).
Where two headings read alike, the source gives them in different places.

How the values were obtained:
[1] = biological target: T1, human C5a (source not stated) (human, UniProt P01031 678-751); assay: cell-based or functional assay
T1 sequence: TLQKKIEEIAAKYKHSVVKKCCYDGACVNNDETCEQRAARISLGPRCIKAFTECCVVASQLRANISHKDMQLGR

[2] = biological target: T1, human C5a (source not stated); assay: cell-based or functional assay; remark: listed apart in the source
[3] = biological target: T1, human C5a (source not stated); assay: cell-based or functional assay; remark: listed apart in the source
C5a-Q36A [4] = biological target: T2, C5a-Q36A; assay: ELISA on the coated C5a protein, antibody titrated, OD410
T2 single chain: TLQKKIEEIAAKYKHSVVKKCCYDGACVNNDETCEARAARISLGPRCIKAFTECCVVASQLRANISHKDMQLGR

C5a-R40A [5] = biological target: T3, C5a-R40A; assay: as above
T3 single chain: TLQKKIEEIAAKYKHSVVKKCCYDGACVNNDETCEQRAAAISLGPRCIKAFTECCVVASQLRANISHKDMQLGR

C5a-T33A [6] = biological target: T4, C5a-T33A; assay: as above
T4 single chain: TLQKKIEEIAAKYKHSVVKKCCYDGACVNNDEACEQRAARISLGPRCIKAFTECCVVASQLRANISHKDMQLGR

C5a-E32A = biological target: T5, C5a-E32A; assay: as above
T5 single chain: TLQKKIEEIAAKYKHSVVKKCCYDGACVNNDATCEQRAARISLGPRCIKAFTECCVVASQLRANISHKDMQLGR

C5a-Q36A [7] = biological target: T2, C5a-Q36A; assay: as above
C5a-R40A [8] = biological target: T3, C5a-R40A; assay: as above
C5a-T33A [9] = biological target: T4, C5a-T33A; assay: as above
[10] = biological target: T6, native full-length human complement component C5 (human, UniProt P01031 19-673; P01031 678-1676); assay: SPR (Biacore T200), antibody on CM5 chip, antigen 0-10 nM
T6 construct: mature; The native protein has two disulfide-linked chains (alpha and beta) made from one precursor; also called human native C5
Protocol: The affinities for eC5a and c5 at various concentrations were measured. […] The concentrations of 0.625 and 0 nM were repeated once. Using the SPR technology, the association and dissociation rates were measured, and binding affinity was determined.

T6 sequence (P01031 19-673 limits assumed, one chain of several): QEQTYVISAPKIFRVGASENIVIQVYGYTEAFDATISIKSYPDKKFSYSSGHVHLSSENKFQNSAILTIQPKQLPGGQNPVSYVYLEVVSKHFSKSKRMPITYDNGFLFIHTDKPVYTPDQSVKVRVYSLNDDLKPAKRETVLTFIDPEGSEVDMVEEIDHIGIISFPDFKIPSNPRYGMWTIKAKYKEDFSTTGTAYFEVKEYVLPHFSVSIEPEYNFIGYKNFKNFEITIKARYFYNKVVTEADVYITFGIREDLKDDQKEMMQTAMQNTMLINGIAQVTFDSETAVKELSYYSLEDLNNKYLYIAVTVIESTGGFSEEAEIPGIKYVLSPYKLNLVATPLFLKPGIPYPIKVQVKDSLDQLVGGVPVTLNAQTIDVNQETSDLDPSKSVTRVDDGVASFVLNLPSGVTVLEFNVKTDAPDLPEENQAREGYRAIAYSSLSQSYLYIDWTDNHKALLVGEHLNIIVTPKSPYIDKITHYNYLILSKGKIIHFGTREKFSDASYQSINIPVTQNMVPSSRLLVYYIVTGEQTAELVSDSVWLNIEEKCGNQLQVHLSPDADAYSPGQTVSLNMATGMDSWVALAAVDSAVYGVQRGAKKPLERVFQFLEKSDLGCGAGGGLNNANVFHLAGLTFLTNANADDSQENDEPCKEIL

B1: Cab03 scFv (scFv, V domains shown)
VH: EVQLVESGGGLVQPGGSLKVSCAASGFIFSDYYMQWVRQAPGKGPEWVGLIRKKVNGGTTEYAASVKGRFTISRDDSKSIVYLQMSSLKIEDTAVYYCVSRAGPPGLTWGQGVLVTVSS
VL: DIVLTQTPLSLAVSPGEPASISCRSSQSLLASDGYTYLDWYLQKPGQSPQILIYGGSNRASGVPDRFSGRGSGTDFTLKITKVEAEDVGVYYCLQHRALPPTFGQGTKLEIK
- ROS IC50 [1]: 1.41 nM

B2: Cab15 scFv (scFv, V domains shown)
VH: VVQLVESGGGLVQPGGSLKVSCAASGFTFSDYYMQWVRQAPGKGPEWVGLIRNKAIGETTEYAASVKGRFTISRDDSKSIVYLQMSSLKPEDTAVYYCAGRLGPPGLSWGQGVLVTVSS
VL: DIVMTQNPLSLPVTPGEPASISCRSSQSLLATDGYTYLDWYLQKPGQSPQVLIYGGSKRASGVPDRFSGSGSGTDFTLKITKVEAEDVGIYYCMQHKALPPTFGQGTKLEIK
- ROS IC50 [1]: 0.64 nM

B3: Cab19 scFv (scFv, V domains shown)
VH: EVQLVESGGGLVQPGGSLKVSCVASGFTFSDYYIQWVRQAPGKGPEWVGLIRNKAVGGTTSYAASVKGRFTISRDDSKSVAYLQMTSLKTEDTAVYFCVSRAGPPGLSWGQGVLVTVSS
VL: DIVMIQNPLSLPVTPGEPASISCRSSQSLLHSDGYTYLDWYQQKPGQAPQLLIYGGSNRASGVPDRFSGSGSATDFTLKISKMEAEDVGVYYCMQHKALPPTFGGGTKVEIK
- ROS IC50 [2]: 1.32 nM

B4: Cab04 scFv (scFv, V domains shown)
VH: EVQLVQSGGGLVQPGGSLKVSCAASGFTFSDYYMQWVRQAPGKGPEWVGLIRNKAIGGTTQYAASVKGRFTISRDDSKSIVYLQMSSLKTEDTAVYYCVSRAGPPGLSWGQGVVVTVSS
VL: DIVMIQTPLSLPVTPGEPASISCRSSQRLLHTDGYTYLDWYLQKPGQSPQLLIYGGSNRASGVPDRFSGSGSGSDFTLKISKVEAEDVGVYYCLQHKALPLTFGGGTKLEIK
- ROS IC50 [1]: 1.87 nM

B5: Cab01 scFv (scFv, V domains shown)
VH: EVQLVESGGGMVQPGGSLRVSCAASGFTFTKYYMQWVRQAPGKGPEWVGLIRNKANGGTAEYVASVKDRFTISRDDSKSIAYLQMSSLKTEDTAVYYCVMRDNGYHWGQGVLVTVSS
VL: DIVLTQTPLSLPVTPGEPASISCRSSQRLLHSDGYTYLDWYLQKPGQSPQLLIYGGSNRASGVPDRFSGSGSGTDFTLKISKVEAEDVGVYYCMQHKALPLTFGGGTKVEIK
- ROS IC50 [1]: 1.51 nM

B6: Cab13 scFv (scFv, V domains shown)
VH: VVQLVESGGGLVQPGGSLKVSCAASGFTFSDYYMQWVRQAPGKGPEWVGLIRNKAIGGTTQYAASVKGRFTISRDDSKSIVYLQMSSLKTEDTAVYYCVSRAGPPGLSWGQGVLVTISS
VL: DIVMIQNPLSLPVTPGEPASISCRSSQSLLASDGYNYMDWYLQKPGQSPKVLIYGGSNRASGVPDRFSGSGSGTDFTLKITKVEAEDVGIYYCMQHKVLPPTFGQGTKLEIK
- ROS IC50 [1]: 1.08 nM

B7: Cab36 (reformatted as human IgG1) (antibody, V domains shown)
VH: EMQLVESGGGLVQPGGSLRLSCAASGFTFSDYYMQWVRQAPGKGPEWVGLIRNKAVGETTEYAASVKGRFTISRDDSKNSVYLQMNSLKTEDTAVYYCVSRAGPPGLSWGQGVLVTVSS
VL: DIVMTQSPLSLPVTPGEPASISCRSSQSLLASDGYNYIDWYLQKPGQSPQLLIYGGSNRASGVPDRFSGSGSGTDFTLKISRVEAEDVGVYFCLQHRALPPTFGQGTKLEIK
- ROS IC50 [2]: 1.41 nM

B8: Cab37 (reformatted as human IgG1) (antibody, V domains shown)
VH: EMQLVESGGGLVQPGGSLRLSCAASGFTFSDYYMQWVRQAPGKGPEWVGLIRNKAVGFTTQYAASVKGRFTISRDDSKNSVYLQMNSLKTEDTAVYYCVSRAGPPGLSWGQGVLVTVSS
VL: DIVMTQSPLSLPVTPGEPASISCRSSQSLLASDGYNYIDWYLQKPGQSPQLLIYGGSNRASGVPDRFSGSGSGTDFTLKISRVEAEDVGVYFCLQHRALPPTFGQGTKLEIK
- ROS IC50 [2]: 0.92 nM

B9: Cab44-IgG1 (antibody, V domains shown)
VH: EVQLVESGGGLVQPGGSLRLSCAASGFTFSNYYIQWVRQAPGKGPEWVGLIRNKAIGETTEFAASVKGRFTISRDDSKNSVYLQMNSLKTEDTAVYYCAGRLGPPGLTWGQGVLVTVSS
VL: DIVMTQSPLSLPVTPGEPASISCRSSQSLLATDGYEYLDWYLQKPGQSPQLLIYGASNRASGVPDRFSGSGSGTDFTLKISRVEAEDVGVYYCLQHKALPPTFGQGTKLEIK
notes: Full-length human IgG1
- ROS IC50 [3]: 0.51 nM
- binding result (C5a-Q36A [4]): binds
- binding result (C5a-R40A [5]): binds
- binding result (C5a-T33A [6]): binds
- binding result (C5a-E32A): binds

B10: Cab21 scFv (scFv, V domains shown)
VH: EVQLVQSGGGLVQPGGSLKVSCAASGFIFSNYYIQWVRQAPGKGPEWVGLIRNKAIGETTEFAASVKGRFTISRDDSKSIVYLQMTRLKTEDTAVYYCAGRLGPPGLTWGQGVLVTISS
VL: DAVMTQTPLSLPVTPGEPASISCRSSQSLLASDGYNYIDWYLQRPGQSPKVLIYGGSNRASGVPDRFSGSGSGTYFTLKISKVEAEDVGFYFCLQHRALPPTFGQGTKLEIK
- ROS IC50 [1]: 0.84 nM

B11: Cab43 (reformatted as human IgG1) (antibody, V domains shown)
VH: EVQLVESGGGLVQPGGSLRLSCAASGFTFSNYYIQWVRQAPGKGPEWVGLIRNKAIGETTEFAASVKGRFTISRDDSKNSVYLQMNSLKTEDTAVYYCAGRLGPPGLTWGQGVLVTVSS
VL: DIVMTQSPLSLPVTPGEPASISCRSSQNLLATDGYTYLDWYLQKPGQSPQLLIYGGSKRASGVPDRFSGSGSGTDFTLKISRVEAEDVGVYYCLQHRALPPTFGQGTKLEIK
- ROS IC50 [3]: 0.62 nM

B12: Cab46 (reformatted as human IgG1) (antibody, V domains shown)
VH: EVQLVESGGGLVQPGGSLRLSCAASGFTFSDYYIQWVRQAPGKGPEWVGLIRNKAVGGTTTYAASVKGRFTISRDDSKNSAYLQMNSLKTEDTAVYFCVSRAGPPGLSWGQGVLVTVSS
VL: DIVMTQSPLSLPVTPGEPASISCRSSQSLLATDGYEYLDWYLQKPGQSPQLLIYGASNRASGVPDRFSGSGSGTDFTLKISRVEAEDVGVYYCLQHKALPPTFGQGTKLEIK
- ROS IC50 [2]: 0.66 nM

B13: Cab18 scFv (scFv, V domains shown)
VH: VVQLVESGGGLVQPGGSLKVSCAASGFTFSDYYMQWVRQAPGKGPEWVGLIRNKAIGETTQYAASVKGRFTISRDDSKSIVYLQMSSLKTEDTAVYYCVSRAGPPGLSWGQGVLVTVSS
VL: DIVMTQNPLSLPVTPGEPASISCRSSQSLLDSNRYAYVDWYLQKPGQSPQILVYGGSNRASGVPDRFSGSGSGTDFTLKISKVEAEDVGIYYCMQHKVLPPTFGQGTKLEIK
- ROS IC50 [2]: 1.36 nM

B14: Cab38 (reformatted as human IgG1) (antibody, V domains shown)
VH: EMQLVESGGGLVQPGGSLRLSCAASGFTFSDYYMQWVRQAPGKGPEWVGLIRNKAVGHTTQYAASVKGRFTISRDDSKNSVYLQMNSLKTEDTAVYYCVSRAGPPGLSWGQGVLVTVSS
VL: DIVMTQSPLSLPVTPGEPASISCRSSQSLLASDGYNYIDWYLQKPGQSPQLLIYGGSNRASGVPDRFSGSGSGTDFTLKISRVEAEDVGVYFCLQHRALPPTFGQGTKLEIK
- ROS IC50 [3]: 0.53 nM

B15: Cab35-IgG1 (antibody, V domains shown)
VH: EMQLVESGGGLVQPGGSLRLSCAASGFTFSDYYMQWVRQAPGKGPEWVGLIRNKAVGETTQYAASVKGRFTISRDDSKNSVYLQMNSLKTEDTAVYYCVSRAGPPGLSWGQGVLVTVSS
VL: DIVMTQSPLSLPVTPGEPASISCRSSQSLLASDGYNYIDWYLQKPGQSPQLLIYGGSNRASGVPDRFSGSGSGTDFTLKISRVEAEDVGVYFCLQHRALPPTFGQGTKLEIK
- ROS IC50 [3]: 1.28 nM

B16: Cab45-IgG1 (antibody, V domains shown)
VH: EVQLVESGGGLVQPGGSLRLSCAASGFTFSDYYIQWVRQAPGKGPEWVGLIRNKAVGGTTTYAASVKGRFTISRDDSKNSAYLQMNSLKTEDTAVYFCVSRAGPPGLSWGQGVLVTVSS
VL: DIVMTQSPLSLPVTPGEPASISCRSSQNLLATDGYTYLDWYLQKPGQSPQLLIYGGSKRASGVPDRFSGSGSGTDFTLKISRVEAEDVGVYYCLQHRALPPTFGQGTKLEIK
notes: Full-length human IgG1
- ROS IC50 [3]: 0.64 nM
- binding result (C5a-Q36A [7]): binds
- binding result (C5a-R40A [8]): binds
- binding result (C5a-T33A [9]): binds

B17: INab308 (antibody, V domains shown)
VH: QVQLQQSGPQLVRPGTSVKISCKASGYSFTTFWMDWVKQRPGQGLEWIGRIDPSDSESRLDQRFKDRATLTVDKSSSTVYMQLSSPTSEDSAVYYCARGNDGYYGFAYWGQGTLVTVSS
VL: DIVLTQSPASLAVSLGQRATISCKASQSVDYDGDSYMKWYQQKPGQPPKLLIYAASNLQSGIPARFSGSGSGTDFTLNIHPVEEEDAATYYCQQSNEDPYTFGGGTKLEIK
- Kd [10]: 0.743 nM
- koff [10]: 0.000218 s⁻¹
- kon [10]: 293000 M⁻¹ s⁻¹
